Data on twelve molecules can be found in patent US20160168210A1, “DERIVATIVES OF COLLAGEN-BINDING HAIRPIN PEPTIDES” (NATIONAL RESEARCH COUNCIL OF CANADA, priority 2012, published 2016).

The conditions of series [1]: as reported previously (Blanco 1994; Cochran 2001b); cited from earlier work.
Series [2] concerns the target T1, rat-tail collagen type I (Rattus norvegicus, UniProt P02454+P02466). As to the kind of experiment: Collagen binding/responsiveness of peptides by proton NMR and H-15N HSQC spectroscopy. On the set-up: rat-tail collagen type I (at 4 mg/ml in 0.02 N acetic acid); purchased BD Bioscience; host or cells: rat tail (tissue-derived). Conditions: for NMR perturbations after collagen gelation (polymerization); reversibility of collagen binding: before vs after collagen gelation; for response to / binding of collagen (NMR spectral perturbations): peptide free in solution vs in the presence of collagen. The protocol:
Rat collagen hydrogels were prepared using rat-tail collagen type I (at 4 mg/ml in 0.02 N acetic acid) from BD Bioscience. A volume of 200 μL of the concentrated collagen solution was mixed with an equal volume of a buffer solution that was 400 mM in Tris-HCl and 400 mM in NaCl with a pH of 7.6 and with 50 μL of deuterated water (D2O). The sample mixture was transferred to an NMR tube followed by gentle mixing under agitation using a Thermolyne™ Max Mix-II apparatus. The NMR tube containing the collagen solution was placed within the RF probe housed in a 500 MHz super-conducting magnet (Bruker Avance-500 NMR spectrometer). The probe and sample bulk temperature was kept at 277 K for 3 hours and then elevated to 310 K at a rate of 1 degree/10 min to enable fibril alignment during a slow process of collagen gelation under the influence of the magnetic field (Ma 2008). The degree of fibril alignment of the collagen hydrogels was determined by use of deuterium NMR spectroscopy of the added D2O as described (Ma 2008). […]
Randomly-deposited collagen (hydrogel) matrix was prepared following the same procedure as above for partially aligned hydrogels, except that the RF probe and the NMR tube (or test tubes) containing the collagen solution were placed outside the magnetic field. Peptides containing collagen-binding hairpins were introduced into the hydrogels in two ways, the first with the collagen stock solution diluted (50:50 in volume ratio) by the buffer of 400 mM in Tris-HCl and 400 mM in NaCl at pH 7.6 containing the peptides of interest (i.e. for FIGS. 1A & 1D), which gelates in the presence of the added peptide. Alternatively, peptides in an appropriate buffer were introduced to the top of the hydrogel matrix (i.e. for FIGS. 1B & 1C) preformed in the NMR tube (or test tube) following the procedures described above. The behavior of the peptides in the hydrogels was followed by use of NMR H-^15N HSQC spectra for ^15N-labelled peptides (FIG. 1) and/or by use of one-dimensional proton NMR spectroscopy (FIG. 2).
(§1) Deuterium NMR spectroscopy studies of collagen responsiveness (and/or binding) for each peptide were carried out using a volume of (400-X) μL of a peptide dissolved in pure water mixed with 50 μL of a 10×PBS (phosphate-buffered saline) supplemented by sodium phosphate to a final concentration of 50 mM, with 50 μL of deuterated water (D2O) to form the reference sample (where X=0), or the peptide-collagen complex with X μL of rat-tail collagen type I (at 3.6 to 4 mg/ml in 0.02 N acetic acid from BD Bioscience) adjusted to achieve the desired final concentration of collagen. The pH value of the reference peptide samples was adjusted to match the pH of the final peptide-collagen complex in order to facilitate NMR spectral comparison. The peptide-collagen solutions were also subjected to gelation under magnetic field guidance followed by the measurement of fibril alignment (Ma 2008) as a semi-quantitative indication of peptide-collagen binding. Deuterium coupling constants measuring the degree of collagen fibril alignment were reduced by more than 1.0 Hz for MH2-wZIP4, by less than 0.5 Hz for MH2-wZIP6 and MH2-wZIP5, which parallel those observed for trpzip4, trpzip6, trpzip5 and the gb1 peptide (see Example 4). As a comparison, a solution of rat collagen at a concentration of 1.8 mg/ml in 200 mM Tris-Cl/200 mM NaCl at pH 7.6 formed a partially-aligned hydrogel with a deuterium coupling constant (Ma, 2008) of 2.5 Hz, while a solution of rat collagen at a concentration of 3 mg/ml in PBS (137 mM NaCl/2.68 mM KCl/10.1 mM Na2HPO4/1.76 mM KH2PO4) supplemented with Na2HPO4 to achieve a final concentration of 50 mM at pH 7.4 formed a partially-aligned hydrogel with a deuterium coupling constant of 4.8 Hz. A solution of human collagen at a concentration of 2.23 mg/ml in PBS supplemented with Na2HPO4 with a final concentration of 50 mM at pH 7.4 formed a partially-aligned hydrogel with a deuterium coupling constant of 1.3 Hz.

Series [3] deals with T1, rat-tail collagen type I. As to the kind of experiment: Collagen fibril alignment of hydrogels formed from peptide-collagen solutions, deuterium NMR (deuterium coupling constant). Also noted: rat-tail collagen type I (at 4 mg/ml in 0.02 N acetic acid); purchased BD Bioscience; host or cells: rat tail (tissue-derived). Format: binding. Here is the method: Rat collagen hydrogels were prepared using rat-tail collagen type I (at 4 mg/ml in 0.02 N acetic acid) from BD Bioscience. A volume of 200 μL of the concentrated collagen solution was mixed with an equal volume of a buffer solution that was 400 mM in Tris-HCl and 400 mM in NaCl with a pH of 7.6 and with 50 μL of deuterated water (D2O). The sample mixture was transferred to an NMR tube followed by gentle mixing under agitation using a Thermolyne™ Max Mix-II apparatus. The NMR tube containing the collagen solution was placed within the RF probe housed in a 500 MHz super-conducting magnet (Bruker Avance-500 NMR spectrometer). The probe and sample bulk temperature was kept at 277 K for 3 hours and then elevated to 310 K at a rate of 1 degree/10 min to enable fibril alignment during a slow process of collagen gelation under the influence of the magnetic field (Ma 2008). The degree of fibril alignment of the collagen hydrogels was determined by use of deuterium NMR spectroscopy of the added D2O as described (Ma 2008).
as §1, with “A solution of human collagen at a concentration of 2.23 mg/ml in PBS supplemented with Na2HPO4 with a final concentration of 50 mM at pH 7.4 formed a partially-aligned hydrogel with a deuterium coupling constant of 1.3 Hz.” left out

Series [4] deals with abdominal vena cava injured by FeCl3. Conditions: I.V. 30 minutes after FeCl3; about 1/4 of the highest FL4247 dose.
Excerpt: The application of ferric chloride on venous and arterial vessels was therefore the method used to produce the inflamed vasculature in the animal model. The carotid artery (arterial model) and the abdominal vena cava (venous model) were the chosen vessels for the imaging experiments with injured blood vessels undergong thrombosis.
The FeCl3 rat venous model of thrombosis was generated as described (Wang 2005) with some modifications. Briefly, rats were anesthetized with a 2.5% isoflurane/oxygen mixture and placed on a heat source (35-37° C.). The vena cava was then exposed via a midline incision and the region between the renal and iliolumbar veins was isolated. One minute after drug administration, a piece of filter paper (Gel Blot Paper, GB003, Whatman, Piscataway, N.J., USA; 7 mm diameter) saturated with 10% FeCl3 (EMD Chemicals Inc., Gibbstown, N.J., USA) was placed on the exposed surface of the vena cava and incubated for 3.5 minutes. During the application of FeCl3, the abdominal region was covered with aluminum foil. At the end of the incubation period, the filter paper was removed and the exposed viscera covered with a saline-soaked gauze.
In these imaging experiments, there were also a 30-minute waiting time after introduction of FeCl3 to the exposed vena cava to ensure the development of substantial vascular injury and the deposition of a thrombus.
The target of series [5] is T2, rat-tail collagen type I (rat, UniProt P02454 152-1207; P02466 86-1125).
T2 construct: also called type-I collagen; unpolymerized collagen
As to the kind of experiment: NMR spectroscopy (Table 4 footnote).

For series [6], the target named is T2, rat-tail collagen type I. As to the kind of experiment: cell-based or functional assay.

Entries after “also recorded” stand apart in the source; their conditions may differ. Where no end group is shown, it is not given here. Where only a bound is given, the exact number is not on record here.

T2 sequence (P02454 152-1207 limits assumed, chain 1 of 2): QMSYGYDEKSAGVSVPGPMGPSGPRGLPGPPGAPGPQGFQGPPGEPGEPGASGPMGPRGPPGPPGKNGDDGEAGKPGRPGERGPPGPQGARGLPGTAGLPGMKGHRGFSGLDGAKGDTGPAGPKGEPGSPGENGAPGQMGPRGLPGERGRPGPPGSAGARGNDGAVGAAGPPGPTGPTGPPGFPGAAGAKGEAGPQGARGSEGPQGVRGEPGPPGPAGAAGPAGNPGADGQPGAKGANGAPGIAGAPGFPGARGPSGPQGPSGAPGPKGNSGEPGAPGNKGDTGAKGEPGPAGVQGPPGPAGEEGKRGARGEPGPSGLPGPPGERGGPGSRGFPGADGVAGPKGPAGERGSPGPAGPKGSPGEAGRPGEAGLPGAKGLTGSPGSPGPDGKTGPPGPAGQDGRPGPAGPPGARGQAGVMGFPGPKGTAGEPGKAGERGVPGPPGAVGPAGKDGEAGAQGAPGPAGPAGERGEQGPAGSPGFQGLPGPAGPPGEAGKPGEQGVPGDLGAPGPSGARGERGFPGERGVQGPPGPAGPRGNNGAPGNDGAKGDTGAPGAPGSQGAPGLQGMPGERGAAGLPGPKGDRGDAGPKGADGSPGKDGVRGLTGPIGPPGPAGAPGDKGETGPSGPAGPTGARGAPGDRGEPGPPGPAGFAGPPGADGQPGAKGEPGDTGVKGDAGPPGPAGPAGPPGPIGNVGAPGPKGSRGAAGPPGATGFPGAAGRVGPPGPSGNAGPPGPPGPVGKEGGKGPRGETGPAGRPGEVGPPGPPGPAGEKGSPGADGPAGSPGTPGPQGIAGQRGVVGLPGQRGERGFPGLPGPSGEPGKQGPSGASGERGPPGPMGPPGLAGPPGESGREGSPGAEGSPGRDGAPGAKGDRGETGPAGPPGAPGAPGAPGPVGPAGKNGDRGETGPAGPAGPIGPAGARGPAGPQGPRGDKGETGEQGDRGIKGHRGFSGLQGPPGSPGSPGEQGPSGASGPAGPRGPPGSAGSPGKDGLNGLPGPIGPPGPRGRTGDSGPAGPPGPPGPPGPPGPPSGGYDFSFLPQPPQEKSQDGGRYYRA
T2 sequence (P02466 86-1125 limits assumed, chain 2 of 2): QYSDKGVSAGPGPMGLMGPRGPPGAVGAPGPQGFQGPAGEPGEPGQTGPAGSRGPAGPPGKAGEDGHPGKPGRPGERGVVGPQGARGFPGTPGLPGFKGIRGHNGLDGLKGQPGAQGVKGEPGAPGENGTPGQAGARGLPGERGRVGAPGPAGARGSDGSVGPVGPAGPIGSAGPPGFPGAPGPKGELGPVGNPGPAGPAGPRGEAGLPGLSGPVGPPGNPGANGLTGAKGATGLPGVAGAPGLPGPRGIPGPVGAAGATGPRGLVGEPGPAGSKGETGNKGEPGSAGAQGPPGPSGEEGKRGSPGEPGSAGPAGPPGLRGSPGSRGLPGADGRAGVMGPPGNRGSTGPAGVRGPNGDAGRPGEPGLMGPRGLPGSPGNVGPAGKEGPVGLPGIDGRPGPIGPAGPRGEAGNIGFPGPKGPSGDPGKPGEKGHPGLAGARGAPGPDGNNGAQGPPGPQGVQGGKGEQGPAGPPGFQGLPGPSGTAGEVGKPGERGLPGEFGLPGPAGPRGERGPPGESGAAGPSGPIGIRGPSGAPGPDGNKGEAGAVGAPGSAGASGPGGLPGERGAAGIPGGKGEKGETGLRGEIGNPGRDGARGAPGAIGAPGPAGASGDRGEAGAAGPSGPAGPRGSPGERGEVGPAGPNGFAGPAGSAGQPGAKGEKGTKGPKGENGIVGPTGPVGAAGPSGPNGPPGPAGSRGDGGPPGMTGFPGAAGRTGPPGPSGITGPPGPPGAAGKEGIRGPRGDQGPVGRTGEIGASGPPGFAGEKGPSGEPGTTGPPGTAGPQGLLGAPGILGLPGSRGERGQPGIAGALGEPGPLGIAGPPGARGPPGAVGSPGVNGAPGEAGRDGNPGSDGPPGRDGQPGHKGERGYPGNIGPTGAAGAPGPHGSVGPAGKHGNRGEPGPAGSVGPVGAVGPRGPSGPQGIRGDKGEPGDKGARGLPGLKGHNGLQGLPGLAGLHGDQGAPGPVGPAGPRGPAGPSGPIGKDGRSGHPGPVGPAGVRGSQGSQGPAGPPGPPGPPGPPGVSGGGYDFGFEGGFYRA
T1 sequence (P02454 152-1207 limits assumed): as the sequence (P02454 152-1207 limits assumed, chain 1 of 2) above
T1 sequence (P02466 86-1125 limits assumed): as the sequence (P02466 86-1125 limits assumed, chain 2 of 2) above

In the case of “GEWTYDDATKTFTWTE (GEWTYDDATKTFTWTE-NH2) [trpzip5, reference compound]”, in series [1], the Tm entry is “about 43 °C”. In series [2], the “NMR perturbations after collagen gelation (polymerization); reversibility of collagen binding” value (shortened to “NMR perturbations … of collagen binding”) is “revert toward those of the free peptides after collagen polymerization; also recorded: reverts to a greater extent as compared to trpzip6” and the “response to / binding of collagen (NMR spectral perturbations)” value (“response to / binding of collagen” for short) is listed as “responded to collagen; also recorded: respond to the presence of collagen”.
In the case of “IRFDTGEWTWDDATKTWTWTEGDFEEIPEEYLQ (MH2-wZIP4 - molecule of Formula (I))”, in series [2], the “NMR perturbations … of collagen binding” value is listed as “no dramatic impact on resonance perturbations” and the “response to / binding of collagen” value is “most pronounced proton NMR spectral changes; also recorded: highest capacity of binding unpolymerized soluble collagen”. Moreover, the “NMR perturbations / release after collagen degradation by a collagenase” value in series [2] (collagenase treatment) is on record as “releasable by the collagenase; also recorded: highly sensitive to the treatment of a collagenase”. Also, in series [2] (diffused into pre-aligned collagen hydrogels), the “entrapment in collagen hydrogel” value was “greatly-reduced entrapment”. Also, in series [3], the “effect on collagen gelation and degree of collagen alignment” value (“effect on collagen gelation and degree” below) is “most pronounced interference with hydrogel formation by collagen”. The “reduction of deuterium coupling constant measuring the degree of collagen fibril alignment” value in series [3] (gelation under magnetic field guidance) is “more than 1.0 Hz”.
For “STWTWNGTNWTRNDGGC-Fluor750 (not fully specified (C-terminus); printed as STWTWNGTNWTRNDGGC-Fluor750; also: HiLyte Fluor750 conjugate) [FL4447]”, in series [4], the “fluorescence at the injured vena cava (whole-body and post-mortem imaging)” value is on record as “somewhat reduced level of local fluorescence as compared to FL4247/FL4312”.
Consider “GEWTWDDATKTWTVTE (GEWTWDDATKTWTVTE-NH2) [trpzip6, reference compound]”, for which the Tm result in series [1] was “about 45 °C”. In series [2], the “NMR perturbations … of collagen binding” value is on record as “revert toward those of the free peptides after collagen polymerization” and the “response to / binding of collagen” value is on record as “responded to collagen; also recorded: respond to the presence of collagen”.
For “GEWTWDDATKTWTWTE (GEWTWDDATKTWTWTE-NH2) [trpzip4, reference compound]”, the Tm entry in series [1] is “about 70 °C”. Also, the “response to / binding of collagen” value in series [2] is on record as “responded to collagen; also recorded: most pronounced changes in response to the presence of collagen; also recorded: dramatically altered by collagen”. Besides, the “effect on collagen gelation and degree” value in series [3] is on record as “significantly reduced degree of collagen alignment”.
Consider “GEWTYDDATKTFTVTE (gb1 - does not bind collagen) [reference compound]”, for which the Tm result in series [1] was “about 7 °C”. For the same molecule, the “response to / binding of collagen” value in series [2] was “no response to collagen; also recorded: little binding capacity; also recorded: does not bind collagen”. For the same molecule, the “effect on collagen gelation and degree” value in series [3] is given as “remained similar with or without the peptide”.

B1: W4W9-trpzip2 (peptide)
peptide: SVTWENGKWTVK
For B1, the binding result in series [5] is on record as “no binding”.

B2: YWWY-trpzip2 (peptide)
peptide: SYTWENGKWTYK
Turning to B2, in series [5], the binding result is given as “no binding”.

B3: Y2Y11-trpzip1 (peptide)
peptide: SYTWEGNKWTYK
For the molecule B3, the binding result in series [5] was “no binding”.

B4: MH2-wZIP4 (peptide)
peptide: IRFTDGEWTWDDATKTWTWTEGDFEEIPEEYLQ
For the molecule B4, in series [6], the “reduction of the deuterium coupling constant measuring the degree of collagen fibril alignment” value was above 1 Hz.

B5: MH2-wZIP5 (peptide)
peptide: GEWTYDDATKTFTWTE
For B5, the “reduction of the deuterium coupling constant measuring the degree of collagen fibril alignment” value in series [6] was below 0.5 Hz.

B6: MH2-wZIP6 (peptide)
peptide: GEWTWDDATKTWTVTE
With B6, the “reduction of the deuterium coupling constant measuring the degree of collagen fibril alignment” value in series [6] was below 0.5 Hz.
